# Experiment: soluble on expression in E. coli; label from the status in PepcDB or PDB records
row,Sequence,soluble on expression in E. coli
1,MGSDKIHHHHHHMVKYMKIVGITDLHGKLPPAVREFKDFADVLVVCGDITHFGKGIEVIEKLAELSDYMEVLCVPGNCDTKEVIDELNSFKLNIDRKVKKIENINFVGIGGSNKTPFNTPNEYTEEEIYNKLINVVKNLKNIFLVSHAPPYNTMADIVDLDKDIHVGSKSIRKIIEDFNENIRFCACGHIHESRCIDKIGNTIVVNPSPKSYFVYDTKKNMVVLDDFNGF,not soluble
2,YKDSPKVLGQTYSSLLIDFTEGFHPNDLGIIVETIKEGGIIIAFSPPIEQWENLKSRWHEELVSEPYTVEDVTGRFFARFMRRTLQAEGIIIFD,not soluble
3,MHIESPIKRRQSTRIYVGNVPIGDGAPIAVQSMTNTRTTDVDATVAQIKSLEKVGADIVRVSVPTMDAAEAFKVIKQQVSVPLVADIHFDYRIALQVAEYGVDCLRINPGNIGNEQRIRSVVDCARDKNIPIRIGVNGGSLEKDIQAKYKEPTAEALLESAMRHVDILDRLNFDQFKVSVKASDVFLAVDSYRLLAKQIAQPLHLGITEAGGARAGSVKSAVGLGMLLSEGIGDTLRISLAADPVEEIKVGFDILKSLRIRSRGINFIACPTCSRQEFDVIATVNELEQRLEDLITPMDVSLIGCVVNGPGEAEVSHMGIAGSNRKSAFYEDGVRQKERFDNDNIVDQLEAKIRAKAATLSKENQIDINQID,not soluble
4,MGSDKIHHHHHHMEANDLLTLGLGLTAPWRVVDQSLDLSKQPSELRLEVEAARGERYPCPACGALCKAHDFAEFSWRHLNFFQHHCLIKARVPRVRCPEHGLKRVNVPWARPGSGFTLLFEQAVMLLAREMPVNAVARYVGVTDKRIWRVVTHYVLKGMGKLDLSRLCGIGLDETATKRGHHYVTIFVDMDRESRPVVFATPGKGKECLKTFAAYLKGRQGNPENVVEVVCDMSPAFLSAAEATFRNAAVTVDWFHVVQIFTKALDEVRRLEAREVILPKAARWAVLKGLETWRIEEQVAALKELEERGLATATAFRVKELLRWVRKADTRQGARWRATRFFEFARELAGDSVLLAPVRKALNTFEDHLPRILRRWDSLLSNARLEGLNGLFQAARSRARGYRNVTTFITMIYLIGAPITQLLEA,not soluble
5,MDLAKLGLKEVMPTKINLEGLVGDHAFSMEGVGEGNILEGTQEVKISVTKGAPLPFAFDIVSVAFGYGNRAYTGYPEEISDYFLQSFPEGFTYERNIRYQDGGTAIVKSDISLEDGKFIVNVDFKAKDLRRMGPVMQQDIVGMQPSYESMYTNVTSVIGECIIAFKLQTGKHFTYHMRTVYKSKKPVETMPLYHFIQHRLVKTNVDTASGYVVQHETAIAAHSTIKKIEGSLPVDHHHHHH,soluble
6,MGSDKIHHHHHHMDLLELKAFVFAVQTGSITQAAFQLGRVQSSVSLRIKQLETELGVELLSRDRGGVRTTARGQILYDYATRILALAQEAKGEVMSPNTGEIVRLGTIETISPDCIDSLVRLLSGFDGMGVDVYVDGALSLVESLREGRIHAAIVGAGFAPPECIRIPLYGEAMVLISSLKYPRIDLVNQIANEIFLVCKKESACSRHLAMLFMEGGFQPARISECGSFSILMSSVVRGMGIALVPLSAVLGSAHEKQVLIHPLSGHFSTFQVEFVCPQPKGRPILERLIEKISQEFVGQKPN,not soluble
7,IRSIWENNGFGLMSSKTMTDFDYWISDFEKIGASQKEAEQLIVKAIEIAIDANARNYNYINAILKDWEQRGFKSVEEREA,soluble
8,MGSDKIHHHHHHMKVLVPATTTNLGAGFDVFGLALDLFNEVEFSFDTKETTIESTGKYASDLKDHNLFFEVLRFFERKTGYRVPPVRIKQTCNIPVSSGLGSSAAVIVAALHIANEGTGRNLSREDLMKLAVELEGHPDNVVPAFTGGLVVCYQNGSHLDFEKFEIDLSLTFLVPNFPVCTNEMRKILPEKVPFEDAVFNIKNSCQFLAKIAAGKIKEALKYVGDRLHQNYRINGNKKMKEFVEAILSKNPEYWFVSGSGPSVCSNINDFEGIPYLKDVLKLRVNNRGMIVSE,not soluble
9,MSGSFELSVQDLNDLLSDGSGCYSLPSQPCNEVTPRIYVGNASVAQDIPKLQKLGITHVLNAAEGRSFMHVNTNANFYKDSGITYLGIKANDTQEFNLSAYFERAADFIDQALAQKNGRVLVHCREGYSRSPTLVIAYLMMRQKMDVKSALSIVRQNREIGPNDGFLAQLCQLNDRLAKEGKLKP,soluble
10,MEFKLLQTFIEVVRQGSFSKAAENLFTTQSTVSKAIKQLEEELGITLIERFKKRNVPTTAGEIVYQRGTKLLADRDDLLKELDEIRGLKQGRLRLGISPVGSSTLFAPLFVLYRQRYPGIEVELVEHGSDKLAECLRAGEIDFAGTLLPISEEFDCQLVRSEPLVALLASGHPLATKHCISLPELKEIPFILFGSGFALHRIILDACRHAGFEPKVVAQSSQIDFMLELVAAGLGVTFLPRMIATQRHTTQIRSLLLNGSEFQWNMAMTWRRNSYLSEAAQAWLALVREVHVDN,not soluble
11,MAHHHHHHMLRSTLTSLNTFLTSSVATPPISVIRTGPKWWADPERMVRQKLMYFTLGVDQLPLRRTAVIQRDLQRFHMCKPPPRVGDSTGYKRSRAAQLNTWYRRIQYQEYHMQHLFTRHVWGLLRVYPGNTTKIQGKADDGYVGYDSVPFHRYNRAPLPFPARELYERRK,not soluble
12,MGSDKIHHHHHHMLIKTVLNKFERFKSFIYGDCRLAKVGGSEALVIDIKARRNSKPECPECGKRGKTYDTQPARLFEYVPIWAFKVFFRYAPRRVLCPIHGVKVESLPWGYGKEQMTISYQVYLARWARRLSWKEVAEIFKTSWDSIFRAVQYAVDYGLANRNLDGVTEIGVDEIAVFKGHQYLTMVYQLNAGVRRLLWCGPQRRIRTLLRFFREFGKERSAKLKYVCSDMWAPYLKVIAKRAPNAVNILDRFHIMRKFNEAIDEVRRTEAKEFKAAKQENVLEKGRWLLLKRPENLSEKQTSRLGDLLKLNLSSIKAYLLREDFQQFWDYQRSDFAGKFLDDWVIRTMQTDLEPMKKVARMLRNHKPMILNWFKAKGRLSSGAVEGLNLKAKLTIRKAYGFRTIKCLQVALYHTLGDLPEPLCHHRFC,not soluble
13,MGHHHHHHSHAAAIAGAKLRKVSRMEDTSFPSGGNAIGVNSASSKTDTGRGNGPLPLGGSGLMEEMSALLARRRRIAEKGSTIETEQKEDKGEDSEPVTSKASSTSTPEPTRKPWERTNTMNGSKSPVISRPKSTPLSQPSANGVQTEGLDYDRLKQDILDEMRKELTKLKEELIDAIRQELSKSNTA,soluble
14,MVKETHRFETFTEEPIRLIGEEGEWLGDFPLDLEGEKLRRLYRDMLAARMLDERYTILIRTGKTSFIAPAAGHEAAQVAIAHAIRPGFDWVFPYYRDHGLALALGIPLKELLGQMLATKADPNKGRQMPEHPGSKALNFFTVASPIASHVPPAAGAAISMKLLRTGQVAVCTFGDGATSEGDWYAGINFAAVQGAPAVFIAENNFYAISVDYRHQTHSPTIADKAHAFGIPGYLVDGMDVLASYYVVKEAVERARRGEGPSLVELRVYRYGPHSSADDDSRYRPKEEVAFWRKKDPIPRFRRFLEARGLWNEEWEEDVREEIRAELERGLKEAEEAGPVPPEWMFEDVFAEKPWHLLRQEALLKEEL,soluble
15,MGSSIASSLMDPTQYYSQFISLQKASLEKAKTPYQNQISSYQSRIDLYASLKNALSDSLKTMSSFTTYESKTKLATSSNETSFTVSSTSSSVNGSYSIEVQNLATADT,not soluble
16,MAPAKKVETRSTDGETRRHIMLIMLKEGPVTATQLGQQLNLSATGIRRHLDILLDEGFAEISSVRRVACEKSRGRPAKAFKLTASGRSQFGHEYDSLAAEALATLKESGGEAAVRAFARKRVEKILADVHVPDNIDDNQLAEVATQLVEAFSNNGYAATINNAANGVQICQHHCPISGVAADFPELCEAEHEMIAKILGHHVQPLASIADGHDICTTNIPITPILTPRKNTPTERSGS,not soluble
17,MLNQELELSLNMAFARAREHRHEFMTVEHLLLALLSNPSAREALEACSVDLVALRQELEAFIEQTTPVLPASEEERDTQPTLSFQRVLQRAVFHVQSSGRNEVTGANVLVAIFSEQESQAAYLLRKHEVSRLDVVNFISHGTRKDEPTQSSDPGSQPNSEEQAGGEERLENFTTNLNQLARVGGIDPLIGREKELERAIQVLCRRRKNNPLLVGESGVGKTAIAEGLAWRIVQGDVPEVMADCTIYSLDIGSLLAGTKYRGDFEKRFKALLKQLEQDTNSILFIDEIHTIIGAGAASGGQVDAANLIKPLLSSGKIRVIGSTTYQEFSNIFEKDRALARRFQKIDITEPSIEETVQIINGLKPKYEAHHDVRYTAKAVRAAVELAVKYINDRHLPDKAIDVIDEAGARARLMPVSKRKKTVNVADIESVVARIARIPEKSVSQSDRDTLKNLGDRLKMLVFGQDKAIEALTEAIKMARAGLGHEHKPVGSFLFAGPTGVGKTEVTVQLSKALGIELLRFDMSEYMERHTVSRLIGAPPGYVGFDQGGLLTDAVIKHPHAVLLLDEIEKAHPDVFNILLQVMDNGTLTDNNGRKADFRNVVLVMTTNAGVRETERKSIGLIHQDNSTDAMEEIKKIFTPEFRNRLDNIIWFDHLSTDVIHQVVDKFIVELQVQLDQKGVSLEVSQEARNWLAEKGYDRAMGARPMARVIQDNLKKPLANELLFGSLVDGGQVTVALDKEKNELTYGFQSAQKHKAEAAH,soluble
18,MGSDKIHHHHHHMEKYSAESIKVLKGLEPVRMRPGMYIGSTGKRGLHHLVYEVVDNSVDEALAGYCDWIRVTLHEDGSVEVEDNGRGIPVDIHPEEGRSALEVVFTVLHAGGKFSKDSYKISGGLHGVGVSVVNALSEWLEVRVHRDGKIYRQRYERGKPVTPVEVIGETDKHGTIVRFKPDPLIFSETEFDPDILEHRLREIAFLVPGLKIEFEDRINGEKKTFKFDGGIVEYVKYLNRGKKALHDVIHIKRTEKVKTKNGEDEVIVEIAFQYTDSYSEDIVSFANTIKTVDGGTHVTAFKSTLTRLMNEYGKKHNFLKKDDSFQGEDVREGLTAVISVYVKNPEFEGQTKSKLGNEEVKEAVTKAMREELKKIFDANPELVKTILSKIMSTKQAREAAKRAREMVRRKNVLQNTTLPGKLADCSSTHREKTELFIVEGDSAGGSAKQARDREFQAVLPIRGKILNVEKSSLDRLLKNEQISDIIVAVGTGIGDDFDESKLRYGRIIIMTDADIDGAHIRTLLLTLFYRYMRPLIEQGRVYIALPPLYRIKAGREEFYVYSDQELAEYKEKLQGKRIEIQRYKGLGEMNPEQLWETTMNPETRKIIRVTIEDAEEADRLFEILMGNDPSSRREFIERHALKVKELDI,not soluble
19,MRIVTAAVMASTLAVSSLSHAAEVGSGDNWHPGEELTQRSTQSHMFDGISLTEHQRQQMRDLMQQARHEQPPVNVSELETMHRLVTAENFDENAVRAQAEKMANEQIARQVEMAKVRNQMYRLLTPEQQAVLNEKHQQRMEQLRDVTQWQKSSSLKLLSSSNSRSQLEHHHHHH,soluble
20,MSLDDRRLIAEVEARRADLVALTQDLVRIPTLNPPGRNYRALCDMLAARLAPQFEVELVRAHGAPGDSETYPRWNLIARRQGARDGDCVHFNSHHDVVEVGHGWTRDPFGAEVEGDRLYGRGACDMKGGLAASVIAAEAFLAVCPDFAGSIEISATADEESGGFGGVAYLARQGRFAHVQHVLIPEPLHKDRICLGHRGVWWAEVETQGRIAHGSMPFLGDSAIRHMGALLAEIEERLYPLLATRTTAMPVTPEGARQSTLNINSIHGGEPEPEPGYTGLPAPCVADRCRIVIDRRFLIEEDLDEVKAELRALAERLAEARPGFAFEIRDLFEVRPTLTDRDAPVVRSTAAAIERVLARQAEYVVSPGTYDQKHIDRIGKLKNCIAYGPGLLHLAHQPDEWVGIADMVDSAKVMALVLADLLAPEEGHHHHHH,soluble
21,MSLWRLKFFLDFEKEEKWLEEMAWKGYQLESTTFGYTFRYTEPEDATIRIDHRVFSRKSEFINYCTLFEDSGWEHIAGNRWSGTYYFKKVNEESEDDIFSDPMSRAGKYKRLSKTEGHHHHHH,not soluble

# Source: the DeepSol protein solubility set
